Reference: PMC9121323, “Using fluorescence anisotropy to monitor chaperone dispersal of RNA-binding protein condensates”

Molecular target: Pab1 monomer (poly(A)-binding protein) (Saccharomyces cerevisiae, UniProt P04147 1-577)
Test: fluorescence anisotropy; monomer calibration, titration regime; Kd cannot be determined; 1x disaggregation buffer (composition not in the material), 30 C, 15 uL samples, fluorescein ex/em 485/535 nm; 0.2 uM A19 RNA used for gain setting
Conditions: protein: recombinant; tags: 8xHis-TEV site tag, removed by TEV protease; label: 5' 6-FAM; single strand

Sequence of Pab1 monomer (poly(A)-binding protein) (P04147 whole entry): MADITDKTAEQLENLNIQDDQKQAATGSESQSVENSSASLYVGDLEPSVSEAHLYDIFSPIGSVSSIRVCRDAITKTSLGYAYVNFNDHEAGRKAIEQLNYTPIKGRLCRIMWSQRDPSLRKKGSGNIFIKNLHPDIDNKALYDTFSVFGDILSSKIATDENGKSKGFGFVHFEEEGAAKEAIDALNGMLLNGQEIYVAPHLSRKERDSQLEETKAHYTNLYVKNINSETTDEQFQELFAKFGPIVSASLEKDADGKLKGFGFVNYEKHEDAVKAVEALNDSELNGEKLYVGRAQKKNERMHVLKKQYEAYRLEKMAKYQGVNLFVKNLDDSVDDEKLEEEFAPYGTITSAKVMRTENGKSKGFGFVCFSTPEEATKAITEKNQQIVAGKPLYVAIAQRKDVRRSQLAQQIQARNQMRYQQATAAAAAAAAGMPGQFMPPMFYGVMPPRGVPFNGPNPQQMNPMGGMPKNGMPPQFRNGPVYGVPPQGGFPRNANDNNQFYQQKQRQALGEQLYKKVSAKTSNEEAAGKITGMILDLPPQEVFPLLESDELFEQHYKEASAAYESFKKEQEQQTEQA

**Q.** Does AAAAAAAAAAAAAAAAAAA (ssRNA) [Fluorescein-A19 RNA] bind?
**A.** Result: binds
